Source: US7122382 (RIKEN, dated 2006)
Like-named read-outs stand apart in the source and are kept apart here.

T1: Bpx protein (nucleosome assembly protein homologue) (2-1H) (mouse, UniProt P51860 1-460, limits assumed, 35S-methionine label or biotinylated lysine, by its role in the assay)
T1 construct: also called NAP 1-like protein L2
T1 sequence (looked up): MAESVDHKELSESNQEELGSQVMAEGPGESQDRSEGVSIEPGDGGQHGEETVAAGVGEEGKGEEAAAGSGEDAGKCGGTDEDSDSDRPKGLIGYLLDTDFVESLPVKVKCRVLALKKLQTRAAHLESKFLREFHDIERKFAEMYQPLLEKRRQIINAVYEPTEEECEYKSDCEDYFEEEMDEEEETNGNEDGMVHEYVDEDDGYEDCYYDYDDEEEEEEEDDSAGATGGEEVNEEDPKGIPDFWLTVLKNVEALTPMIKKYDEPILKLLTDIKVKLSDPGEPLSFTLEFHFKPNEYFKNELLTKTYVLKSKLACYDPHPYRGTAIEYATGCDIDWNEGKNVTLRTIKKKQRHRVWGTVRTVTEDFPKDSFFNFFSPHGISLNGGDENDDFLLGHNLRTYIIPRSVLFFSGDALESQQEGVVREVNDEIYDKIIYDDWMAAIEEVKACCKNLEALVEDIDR

B1: Caspase 6 (1-9E) (enzyme, mouse, UniProt O08738 1-276, looked up)
chain: MTETDGFYKSREVFDPAEQYKMDHKRRGVALIFNHERFFWHLTLPERRGTNADRDNLTRRFSDLGFEVKCFNDLRAEELLLKIHEVSTSSHIDADCFICVFLSHGEGNHVYAYDAKIEIQTLTGLFKGDKCQSLVGKPKIFIIQACRGSQHDVPVVPLDMVDHQTDKLDNVTQVDAASVYTLPAGADFLMCYSVAEGYYSHRETVNGSWYIQDLCEMLARYGSSLEFTELLTLVNRKVSQRRVDFCKDPDAIGKKQVPCFASMLTKKLHFCPKPSK
modifications: 35S-methionine label or biotinylated lysine, by its role in the assay
B2: Jun (other, UniProt P05627 1-334, looked up)
chain: MTAKMETTFYDDALNASFLQSESGAYGYSNPKILKQSMTLNLADPVGSLKPHLRAKNSDLLTSPDVGLLKLASPELERLIIQSSNGHITTTPTPTQFLCPKNVTDEQEGFAEGFVRALAELHSQNTLPSVTSAAQPVSGAGMVAPAVASVAGAGGGGGYSASLHSEPPVYANLSNFNPGALSSGGGAPSYGAAGLAFPSQPQQQQQPPQPPHHLPQQIPVQHPRLQALKEEPQTVPEMPGETPPLSPIDMESQERIKAERKRMRNRIAASKCRKRKLERIARLEEKVKTLKAQNSELASTANMLREQVAQLKQKVMNHVNSGCQLMLTQQLQTF
modifications: 35S-methionine label or biotinylated lysine, by its role in the assay
B3: Fos (other, UniProt P01101 1-380, looked up)
chain: MMFSGFNADYEASSSRCSSASPAGDSLSYYHSPADSFSSMGSPVNTQDFCADLSVSSANFIPTVTAISTSPDLQWLVQPTLVSSVAPSQTRAPHPYGLPTQSAGAYARAGMVKTVSGGRAQSIGRRGKVEQLSPEEEEKRRIRRERNKMAAAKCRNRRRELTDTLQAETDQLEDEKSALQTEIANLLKEKEKLEFILAAHRPACKIPDDLGFPEEMSVASLDLTGGLPEASTPESEEAFTLPLLNDPEPKPSLEPVKSISNVELKAEPFDDFLFPASSRPSGSETSRSVPDVDLSGSFYAADWEPLHSNSLGMGPMVTELEPLCTPVVTCTPGCTTYTSSFVFTYPEADSFPSCAAAHRKGSSSNEPSSDSLSSPTLLAL
modifications: 35S-methionine label or biotinylated lysine, by its role in the assay
notes: Crude translation mix, not purified
B4: p53 (other, UniProt P02340 1-390, looked up)
chain: MTAMEESQSDISLELPLSQETFSGLWKLLPPEDILPSPHCMDDLLLPQDVEEFFEGPSEALRVSGAPAAQDPVTETPGPVAPAPATPWPLSSFVPSQKTYQGNYGFHLGFLQSGTAKSVMCTYSPPLNKLFCQLAKTCPVQLWVSATPPAGSRVRAMAIYKKSQHMTEVVRRCPHHERCSDGDGLAPPQHLIRVEGNLYPEYLEDRQTFRHSVVVPYEPPEAGSEYTTIHYKYMCNSSCMGGMNRRPILTIITLEDSSGNLLGRDSFEVRVCACPGRDRRTEEENFRKKEVLCPELPPGSAKRALPTCTSASPPQKKKPLDGEYFTLKIRGRKRFEMFRELNEALELKDAHATEESGDSRAHSSYLKTKKGQSTSRHKKTMVKKVGPDSD
modifications: 35S-methionine label or biotinylated lysine, by its role in the assay
B5: MB20 protein (function unknown, 2-10F) (other, mouse, UniProt Q794H2 1-544, looked up)
chain: MAEADPKMVTEPGAHGVAEEAMASTACDSGDESDSNSSSSTNSCSSSGSSSSGSSSSSSSSSSSSSSSSSSSSGSSGSSSNGSHLNRKKRVPEPSRRAQRRPSGKLFLDKLPQAVRNRVQALRNIQNECDKVDTLFLRAIHDLERKYAELNKPLYDKRFQIINAEYEPTEEECEWNSEEEFSGDEEMQDDTPNEMPPLEGEEEEESCNEKAEVKEEGTHVPEEVPEAKVEEEEAPKETPEVKTEEKDIPKEGAEEKAEEQESSKEIPEVKGEEKADSTDCIDIAPEEKEDVKEVTQANTENKDQPTEEFTPRAPAREAQKRVPETRPEEGVNIKRARKGKPKKEDPKGIPDYWLTVLKNVDKLGPMIQKCDEPILKFLSDVSLKFSNPGQPIGYTFEFHFLPNPYFRNELLMKTYIIRSKPDHYDPFFAWGWEIEECKGCKIDWRRGKDVTVTTTRSRPGITGEIEVQPRVVPNASFFNFFSPPEIPLIGKLEPREDAILDEDFEIGQILHDNVILKSIYYFTGEINDPYYHDFRDYGNRKYYK
modifications: 35S-methionine label or biotinylated lysine, by its role in the assay
notes: also called NAP1-like protein L3

Experiments:
[1] = biological target: the molecule itself; assay: single proteins, rows taken as 35S-labelled and columns as biotinylated, streptavidin beads
[2] = biological target: 1-9G (mouse); assay: as above
[3] = biological target: 1-9F (mouse); assay: as above
[4] = biological target: 1-9H (mouse); assay: as above
[5] = biological target: the molecule itself; assay: biotinylated row protein on streptavidin beads, 35S column protein counted
Description: (§1) That is, 2.5 μL of each reaction solution was mixed and placed on ice for 60 min. A 15 μL quantity of streptoavidin (Dynabeads) diluted with TBST-1 percent skim milk was added, and the mixture was stirred for 30 min at 4° C. Magnetic force was employed to recover the beads, thorough washing was conducted with TBST, and then the RI of the beads was measured.

[6] = biological target: B4; assay: as above
Description: as §1

[7] = biological target: luciferase (UniProt P08659 1-550 = luciferase, 35S-methionine label or biotinylated lysine, by its role in the assay); assay: as above
luciferase, sequence (P08659 whole entry): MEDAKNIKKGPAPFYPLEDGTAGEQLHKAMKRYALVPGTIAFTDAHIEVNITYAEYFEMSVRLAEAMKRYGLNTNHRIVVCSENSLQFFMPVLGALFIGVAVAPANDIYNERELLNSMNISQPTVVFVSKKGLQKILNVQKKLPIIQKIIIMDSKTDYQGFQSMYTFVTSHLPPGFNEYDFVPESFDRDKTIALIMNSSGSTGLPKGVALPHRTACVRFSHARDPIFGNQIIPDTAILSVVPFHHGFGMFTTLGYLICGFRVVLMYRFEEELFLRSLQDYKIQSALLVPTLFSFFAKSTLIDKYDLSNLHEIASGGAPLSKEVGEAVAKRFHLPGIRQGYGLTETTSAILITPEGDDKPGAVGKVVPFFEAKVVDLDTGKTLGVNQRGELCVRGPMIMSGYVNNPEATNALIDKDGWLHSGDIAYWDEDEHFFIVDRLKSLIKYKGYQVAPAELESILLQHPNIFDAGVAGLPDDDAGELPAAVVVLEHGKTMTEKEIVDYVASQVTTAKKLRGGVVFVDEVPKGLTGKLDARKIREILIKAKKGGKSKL
Description: as §1

[8] = biological target: SV40 large T (SV40, UniProt P03070 1-708); assay: as above
Description: as §1

[9] = biological target: B3; assay: as above
Description: as §1

[10] = biological target: B2; assay: as above
Description: as §1

[11] = biological target: the molecule itself; assay: single proteins, rows taken as 35S-labelled and columns as biotinylated, streptavidin beads; remark: listed apart in the source
[12] = biological target: DnaJ-like protein (Hsj2) (2-10E) (mouse, UniProt P63037 1-397, 35S-methionine label or biotinylated lysine, by its role in the assay); assay: as above
[13] = biological target: 2-10G (mouse); assay: as above
[14] = biological target: 2-10H (mouse); assay: as above
[15] = biological target: T1, Bpx protein (nucleosome assembly …); assay: as above
[16] = biological target: 2-1E (mouse); assay: as above
[17] = biological target: 2-1F (mouse); assay: as above
[18] = biological target: 2-1G (mouse); assay: as above

Binder | RI (c.p.m.) [5] [c.p.m.] | RI (c.p.m.) [6] [c.p.m.] | RI (c.p.m.) [7] [c.p.m.] | RI (c.p.m.) [8] [c.p.m.] | RI (c.p.m.) [9] [c.p.m.] | RI (c.p.m.) [10] [c.p.m.] | also measured
B1 | – | – | – | – | – | – | RI (cpm) [1]: 225 cpm; RI (cpm) [2]: 36 cpm; RI (cpm) [3]: 32 cpm; RI (cpm) [4]: 37 cpm
B2 | 204 | 187 | 131 | 176 | 707 | – | –
B3 | 177 | 169 | 172 | 156 | – | 675 | –
B4 | – | – | 154 | – | 232 | 206 | –
B5 | – | – | – | – | – | – | RI (cpm) [11]: 168 cpm; RI (cpm) [12]: 87 cpm; RI (cpm) [13]: 67 cpm; RI (cpm) [14]: 98 cpm; RI (cpm) [15]: 736 cpm; RI (cpm) [16]: 60 cpm; RI (cpm) [17]: 60 cpm; RI (cpm) [18]: 72 cpm
